Patent publication US20250257149A1

Tests used:
[1] = biological target: MUC1 tandem repeat peptide …-T(X)-… with Galβ1-3GalNAcalpha (TF) at T (human); experiment: antigen ELISA on TF-PDTR MUC1 peptide, purified antibody [panel Binding to TF-MUC1]
[2] = biological target: MUC1 tandem repeat peptide …-T(X)-… with GalNAcalpha (Tn) at T (human); experiment: antigen ELISA on Tn-PDTR MUC1 peptide, purified antibody [panel Binding to Tn-MUC1]
MUC1 tandem repeat peptide …-T(X)-… with GalNAcalpha (Tn) at T (human), sequence (peptide, as listed by the source): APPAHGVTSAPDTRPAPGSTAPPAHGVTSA

MUC1 tandem repeat peptide …-T(X)-… with Galβ1-3GalNAcalpha (TF) at T (human), sequence (peptide, as listed by the source): as above

An EC50 (read off the curve) [1] of 8 ng/mL and an EC50 (read off the curve) [2] of 10 ng/mL were found for PankoMab N54W (antibody) in this work.
